Test results taken from PMC5762634, “Domain swapping and SMYD1 interactions with the PWWP domain of human hepatoma-derived growth factor”.

Molecular target: HDGF PWWP domain (human, UniProt P51858 1-100)
Assay: size-exclusion chromatography; 5 mM EDTA; SEC: 20 mM Tris-HCl pH 7.5, 5 mM EDTA, 5 mM beta-ME, no added salt; protein:DNA 1:1, incubated overnight at 4 C
Settings: protein: recombinant; tags: His tag (pET28a, NdeI/EcoRI, Ni-NTA); chain copies: 2; blunt

HDGF PWWP domain, sequence (P51858 1-100): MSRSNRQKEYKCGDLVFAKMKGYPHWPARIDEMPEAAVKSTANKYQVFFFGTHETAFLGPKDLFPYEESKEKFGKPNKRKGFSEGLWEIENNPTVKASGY

B1: 5-bp SMYD1 (dsDNA)
DNA 1: CAGGC
DNA 2: GCCTG
Does B1 bind?
Result: binds

B2: 15-bp SMYD1 (dsDNA)
DNA 1: CAGGCTGGTCTTGAA
DNA 2: TTCAAGACCAGCCTG
Does B2 bind?
Result: binds
